Data as given in patent publication US11510990B2, “Conjugates of fusion proteins of GLP-1 and FGF21” (BEIJING QL BIOPHARMACEUTICAL CO., LTD., priority 2020, dated 2022).

test: Body weight reduction in C57BL/6 mice, daily subcutaneous dosing; format: in vivo; settings: 30 nmol/kg
Description: FIGS. 1A-1F show in vivo activities of fusion protein conjugates. […] Body weight was measured daily. […] Compared to Vehicle control: ***, p<0.001. All data are expressed as mean values and standard error (SEM).
10 week old male C57BL/6 mice were injected everyday subcutaneously with 30 nmol/kg exemplary fusion protein conjugates for 10 or 14 days (n=5). Body weight was daily monitored for each individual animal. Day 1 and Day 10 (or Day 14) are first day and last day of molecule dosage. % BW loss=100*(BW on Day n-BW on Day 1)/(BW on Day 1). Data are indicated as mean values and standard error (SEM) or pooled values. Statistical analysis was performed by One-way ANOVA. Body weight reduction on Day 11 in Table 5 is calculated by −1*(% BW loss−% BW loss of vehicle group).

Molecule | BW reduction efficacy compared to Compounds 10 and 13
Compound 14: GLP-1/FGF21 fusion polypeptide SEQ ID NO: 14 conjugated with Moiety A at 222K (conjugate, Moiety A conjugated at K222) HGEGTFTSDVSSYLEEQAAREFIAWLVRGGGGQEPGQEPGQEPGQEPGQEPHPIPDSSPLLQFGGQVRQRYLYTDDAQQTEAHLEIREDGTVGGAADQSPESLLQLRALRPGVIQILGVRTSRFLCQRPDGALYGSLHFDPEACSFRELLLEDGYNVYQSEAHGLPLHLPGQRSPHRDPAPRGPARFLPLPGLPPALPEPPGILAPQPPDVGSSDPLSLVGKSQGRSPSYES | lower BW reduction efficacy

same assay, conditions: 30 nmol/kg, 10-day dosing period (FIGS. 1A-1B)

Molecule | BW reduction compared to Semaglutide
Compound 5: GLP-1/FGF21 fusion polypeptide SEQ ID NO: 5 conjugated with Moiety A at 51K and 222K (conjugate, Moiety A conjugated at K51 and K222) HGEGTFTSDVSSYLEEQAAREFIAWLVRGGGGGGGSGGGGSGGGGSGGGGKHPIPDSSPLLQFGGQVRQRYLYTDDAQQTEAHLEIREDGTVGGAADQSPESLLQLRALRPGVIQILGVRTSRFLCQRPDGALYGSLHFDPEACSFRELLLEDGYNVYQSEAHGLPLHLPGQRSPHRDPAPRGPARFLPLPGLPPALPEPPGILAPQPPDVGSSDPLSLVGKSQGRSPSYAS | much more enhanced and persistent BW reduction

same assay, conditions: male C57BL/6 mice, 30 nmol/kg subcutaneously everyday, Day 11

Molecule | Body weight reduction at 30 nmol/kg (% reduction compared to vehicle)(Day11) [%]
Semaglutide [reference compound] | 6.4
Compound 22: GLP-1/FGF21 fusion polypeptide SEQ ID NO: 22 conjugated with Moiety A at 51K and 231K (conjugate, Moiety A conjugated at K51 and K231) HGEGTFTSDVSSYLEEQAAREFIAWLVRGGGGGGGSGGGGSGGGGSGGGGKHPIPDSSPLLQFGGQVRQRYLYTDDAQQTEAHLEIREDGTVGGAADQSPESLLQLRALRPGVIQILGVRTSRFLCQRPDGALYGSLHFDPEACSFRELLLEDGYNVYQSEAHGLPLHLPGQRSPHRDPAPRGPARFLPLPGLPPALPEPPGILAPQPPDVGSSDPLSLVGGSQGRSPSYK | 32.9
Compound 48: GLP-1/FGF21 fusion polypeptide SEQ ID NO: 88 conjugated with Moiety A at 51K and 222K (conjugate, Moiety A conjugated at K51 and K222) HGEGTFTSDVSSYLEEQAAREFIAWLVRGGGGAQPGAQPGAQPGAQPGAQKHPIPDSSPLLQFGGQVRQRYLYTDDAQQTEAHLEIREDGTVGGAADQSPESLLQLRALRPGVIQILGVRTSRFLCQRPDGALYGSLHFDPEACSFRELLLEDGYNVYQSEAHGLPLHLPGQRSPHRDPAPRGPARFLPLPGLPPALPEPPGILAPQPPDVGSSDPLSLVGKSQGRSPSYES | 27.8
Compound 50: GLP-1/FGF21 fusion polypeptide SEQ ID NO: 117 conjugated with Moiety A at 51K and 233K (conjugate, Moiety A conjugated at K51 and K233) HGEGTFTSDVSSYLEEQAAREFIAWLVRGGGGGGGSGGGGSGGGGSGGGGKHPIPDSSPLLQFGGQVRQRYLYTDDAQQTEAHLEIREDGTVGGAADQSPESLLQLRALRPGVIQILGVRTSRFLCQRPDGALYGSLHFDPEACSFRELLLEDGYNVYQSEAHGLPLHLPGQRSPHRDPAPRGPARFLPLPGLPPALPEPPGILAPQPPDVGSSDPLSLVGGSQGRSPSYESK | 9.4
Compound 5: GLP-1/FGF21 fusion polypeptide SEQ ID NO: 5 conjugated with Moiety A at 51K and 222K (conjugate, Moiety A conjugated at K51 and K222) HGEGTFTSDVSSYLEEQAAREFIAWLVRGGGGGGGSGGGGSGGGGSGGGGKHPIPDSSPLLQFGGQVRQRYLYTDDAQQTEAHLEIREDGTVGGAADQSPESLLQLRALRPGVIQILGVRTSRFLCQRPDGALYGSLHFDPEACSFRELLLEDGYNVYQSEAHGLPLHLPGQRSPHRDPAPRGPARFLPLPGLPPALPEPPGILAPQPPDVGSSDPLSLVGKSQGRSPSYAS | 14.4
Compound 12: GLP-1/FGF21 fusion polypeptide SEQ ID NO: 12 conjugated with Moiety A at 225K (conjugate, Moiety A conjugated at K225) HGEGTFTSDVSSYLEEQAAREFIAWLVRGGGGGGGSGGGGSGGGGSGGGGSHPIPDSSPLLQFGGQVRQRYLYTDDAQQTEAHLEIREDGTVGGAADQSPESLLQLRALRPGVIQILGVRTSRFLCQRPDGALYGSLHFDPEACSFRELLLEDGYNVYQSEAHGLPLHLPGQRSPHRDPAPRGPARFLPLPGLPPALPEPPGILAPQPPDVGSSDPLSLVGGSQKRSPSYES | 22.8
Compound 20: GLP-1/FGF21 fusion polypeptide SEQ ID NO: 20 conjugated with Moiety A at 51K and 221K (conjugate, Moiety A conjugated at K51 and K221) HGEGTFTSDVSSYLEEQAAREFIAWLVRGGGGGGGSGGGGSGGGGSGGGGKHPIPDSSPLLQFGGQVRQRYLYTDDAQQTEAHLEIREDGTVGGAADQSPESLLQLRALRPGVIQILGVRTSRFLCQRPDGALYGSLHFDPEACSFRELLLEDGYNVYQSEAHGLPLHLPGQRSPHRDPAPRGPARFLPLPGLPPALPEPPGILAPQPPDVGSSDPLSLVKPSQGRSPSYES | 26.6
Compound 11: GLP-1/FGF21 fusion polypeptide SEQ ID NO: 11 conjugated with Moiety A at 221K (conjugate, Moiety A conjugated at K221) HGEGTFTSDVSSYLEEQAAREFIAWLVRGGGGGGGSGGGGSGGGGSGGGGSHPIPDSSPLLQFGGQVRQRYLYTDDAQQTEAHLEIREDGTVGGAADQSPESLLQLRALRPGVIQILGVRTSRFLCQRPDGALYGSLHFDPEACSFRELLLEDGYNVYQSEAHGLPLHLPGQRSPHRDPAPRGPARFLPLPGLPPALPEPPGILAPQPPDVGSSDPLSLVKPSQGRSPSYES | 10.4
Compound 2: GLP-1/FGF21 fusion polypeptide SEQ ID NO: 2 conjugated with Moiety A at 20K and 231K (conjugate, Moiety A conjugated at K20 and K231) HGEGTFTSDVSSYLEEQAAKEFIAWLVRGGGGGGGSGGGGSGGGGSGGGGSHPIPDSSPLLQFGGQVRQRYLYTDDAQQTEAHLEIREDGTVGGAADQSPESLLQLRALRPGVIQILGVRTSRFLCQRPDGALYGSLHFDPEACSFRELLLEDGYNVYQSEAHGLPLHLPGQRSPHRDPAPRGPARFLPLPGLPPALPEPPGILAPQPPDVGSSDPLSLVGGSQGRSPSYKS | 18.2
Compound 21: GLP-1/FGF21 fusion polypeptide SEQ ID NO: 21 conjugated with Moiety A at 51K and 225K (conjugate, Moiety A conjugated at K51 and K225) HGEGTFTSDVSSYLEEQAAREFIAWLVRGGGGGGGSGGGGSGGGGSGGGGKHPIPDSSPLLQFGGQVRQRYLYTDDAQQTEAHLEIREDGTVGGAADQSPESLLQLRALRPGVIQILGVRTSRFLCQRPDGALYGSLHFDPEACSFRELLLEDGYNVYQSEAHGLPLHLPGQRSPHRDPAPRGPARFLPLPGLPPALPEPPGILAPQPPDVGSSDPLSLVGGSQKRSPSYES | 34.4
Compound 15: GLP-1/FGF21 fusion polypeptide SEQ ID NO: 15 conjugated with Moiety A at 231K (conjugate, Moiety A conjugated at K231) HGEGTFTSDVSSYLEEQAAREFIAWLVRGGGGGGGSGGGGSGGGGSGGGGSHPIPDSSPLLQFGGQVRQRYLYTDDAQQTEAHLEIREDGTVGGAADQSPESLLQLRALRPGVIQILGVRTSRFLCQRPDGALYGSLHFDPEACSFRELLLEDGYNVYQSEAHGLPLHLPGQRSPHRDPAPRGPARFLPLPGLPPALPEPPGILAPQPPDVGSSDPLSLVGPSQGRSPSYKS | 11.3
Compound 51: GLP-1/FGF21 fusion polypeptide SEQ ID NO: 148 conjugated with Moiety B at 51C and 222C (conjugate, Moiety B conjugated at C51 and C222) HGEGTFTSDVSSYLEEQAAKEFIAWLVRGGGGGGGSGGGGSGGGGSGGGGCHPIPDSSPLLQFGGQVRQRYLYTDDAQQTEAHLEIREDGTVGGAADQSPESLLQLKALKPGVIQILGVKTSRFLCQRPDGALYGSLHFDPEACSFRELLLEDGYNVYQSEAHGLPLHLPGQKSPHRDPAPRGPARFLPLPGLPPALPEPPGILAPQPPDVGSSDPLSLVGCSQGRSPSYES | 26.2
Compound 14: GLP-1/FGF21 fusion polypeptide SEQ ID NO: 14 conjugated with Moiety A at 222K (conjugate, Moiety A conjugated at K222) HGEGTFTSDVSSYLEEQAAREFIAWLVRGGGGQEPGQEPGQEPGQEPGQEPHPIPDSSPLLQFGGQVRQRYLYTDDAQQTEAHLEIREDGTVGGAADQSPESLLQLRALRPGVIQILGVRTSRFLCQRPDGALYGSLHFDPEACSFRELLLEDGYNVYQSEAHGLPLHLPGQRSPHRDPAPRGPARFLPLPGLPPALPEPPGILAPQPPDVGSSDPLSLVGKSQGRSPSYES | 9.8
Compound 13: GLP-1/FGF21 fusion polypeptide SEQ ID NO: 13 conjugated with Moiety A at 222K (conjugate, Moiety A conjugated at K222) HGEGTFTSDVSSYLEEQAAREFIAWLVRGGGGAQPGAQPGAQPGAQPGAQPHPIPDSSPLLQFGGQVRQRYLYTDDAQQTEAHLEIREDGTVGGAADQSPESLLQLRALRPGVIQILGVRTSRFLCQRPDGALYGSLHFDPEACSFRELLLEDGYNVYQSEAHGLPLHLPGQRSPHRDPAPRGPARFLPLPGLPPALPEPPGILAPQPPDVGSSDPLSLVGKSQGRSPSYES | 23.6
